Ends that are not written are not given here.
How the values were obtained:
bEnd.3 cell monolayers = assay: In vitro BBB translocation assay (bEnd.3 transwell model)
Description: Assessment of PPC efficacy in BBB translocation was done in a transwell setup (Figure 4A) using bEnd.3 cell monolayers.[44] The bEnd.3 in vitro BBB model consists of a monolayer of cells expressing a range of essential BBB transporters, also bearing the low permeability characteristic of the BBB, suitable for this study.[44]−[46]
Figure 4 PPCs translocation across a bEnd.3 in vitro BBB model. (A) bEnd.3 in vitro BBB model transwell system. The insert, or apex, corresponds to the blood side, while the base (bottom chamber) corresponds to the brain side. (B) After formation of a monolayer, 10 μM of each conjugate was added to the apical side of the tissue culture inserts. After incubation for 24 h, samples from the basolateral side were collected, and the percentage of translocation of each conjugate (black) was calculated. FD4 permeability (gray) was measured to determine monolayer integrity post-PPCs translocation.
An in vitro BBB model consisting of endothelial cells growing on the apical side of a porous membrane was used.[46] bEnd.3 cells (ATTCC-CRL2299) were cultured as a monolayer on T-flasks in DMEM supplemented with 10% fetal bovine serum (FBS), 1% penicillin/streptomycin. Cells were grown in a humidified atmosphere of 5% CO2 at 37 °C (MCO-18AIC (UV), Sanyo, Japan) with the medium changed every other day. Cells were allowed to grow until confluence in a culture T-flask, and then carefully harvested with trypsin-EDTA and seeded (3500 cells/well) onto fibronectin-coated tissue culture 24-well inserts (transparent polyester membrane with 1.0 μm pores) (BD Falcon, USA). The medium was changed every other day for 10 days, after which cells were washed twice with 1× PBS and once with DMEM medium without phenol red. Next, conjugates diluted in DMEM without phenol red to a final concentration of 10 μM were added to the apical side of the in vitro BBB model (Figure 4A). Experiments were performed on different days using independently grown cell cultures.
The translocation of conjugates was determined by fluorescence intensity (λexc = 380 nm and λem = 625 nm for MP conjugates, and λexc = 380 nm and λem = 675 nm for PP conjugates). P3-CF and P5-CF, peptides labeled with 5(6)-Carboxyfluorescein (CF), were used as positive translocation controls (λexc = 492 nm and λem = 517 nm). After 24 h incubation, samples from the apical and basolateral side were collected and analyzed. Fluorescence was measured using a Varioskan Lux plate reader (Thermo Scientific, MA, USA). The percentage (%) of translocation was calculated using the following equation: [drawing 1] 1 where Fi is the recovered fluorescence intensity, Fcells is the recovered fluorescence intensity from cells without the conjugate, and Fconjugate is the fluorescence intensity of total peptide initially added to the transwell apical side.

bEnd.3 cells = assay: Cell viability assay (CellTiter-Blue); assay type: cell-based, murine
Method: bEnd.3 cells were plated in fibronectin precoated 96-well flat-bottom clear black polystyrene plate (Corning, New York, USA) as previously described. Cells were then cultured in complete medium at 37 °C in a 5% CO2 atmosphere, with medium replaced every 2 days. […] Viability was evaluated by the CellTiter-Blue assay (Promega, Wisconsin, USA), based on resazurin reduction into highly fluorescent resorufin by metabolically active cells. By distinguishing metabolic from nonmetabolic cells, cytotoxicity can be indirectly determined. After incubation, cells were washed with PBS, pH 7.4, and 15 μL of CellTiterBlue reagent in 100 μL of complete medium was added to the cells and incubated for 1.5 h at 37 °C in 5% CO2. Fluorescence was measured at 590 nm, with excitation at 560 nm, using an Infinite F200 plate reader (Tecan, Switzerland). Complete medium and medium containing 0.25% Triton X-100 were used as positive and negative controls (100% and 0% viability), respectively. Cell viability (%) was determined using the following equation: [drawing 5] 5 where […] is the fluorescence emission of conjugate-treated cells, Fnontreated is the fluorescence emission of the control nontreated cells, and Fblank is the fluorescent emission of CellTiter reagent in complete medium without cells.

Substance | BBB translocation (in words) (bEnd.3 cell monolayers) | CC50 (bEnd.3 cells)
MP-P5: mesoporphyrin IX coupled to the N-terminal amino group of peptide P5 (SGTQEEY-amide) ({mesoporphyrin IX}-SGTQEEY-NH2) | able to effectively pass the BBB | > 50 µM
P4-MP: mesoporphyrin IX coupled to the C-terminal Lys side chain of peptide P4 (AGILKRWK-amide) (AGILKRWK(mesoporphyrin IX)-NH2) | able to effectively pass the BBB | > 50 µM

— PMC8485325, “Penetrating the Blood-Brain Barrier with New Peptide–Porphyrin Conjugates Having anti-HIV Activity” (Bioconjugate Chemistry, 2021)
